Measurements reported in the supplement of paper PMC9116672.
± gives the standard deviation of the averaged measurements or the uncertainty stated by the source.

Experiments:
[1] = duplex melting temperature (HRM, EvaGreen); higher = more stable duplex
Experimental: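 Listed DNA strand annealed 1:1 with its complementary strand (95 °C 5 min, 0.1 °C/s to 20 °C). Melted in 1x NNE buffer (500 mM NaCl, 10 mM Na2HPO4, 1 mM EDTA, pH 7.0) with 1x EvaGreen on a LightCycler96 (37 to 97 °C, 0.1 °C/s). Tm is the peak of -dF/dT at the stated total duplex concentration; 4 replicates are averaged. PS oligos are non-stereospecific (Rp/Sp mixtures).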

[2] = duplex formation free energy ΔG50 (Van't Hoff fit of HRM Tm); higher = less stable duplex; conditions: temperature for dG: 50 °C, NaCl: 500 mM (unadjusted)
Experimental: (§1)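 Duplex of the listed DNA strand with its complement, in 1x NNE buffer (500 mM NaCl, pH 7.0) with 1x EvaGreen. ΔH and ΔS come from a Van't Hoff linear fit of 1/Tm against ln(CT/4) over 1-20 uM, using HRM Tm values.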

[3] = duplex formation enthalpy ΔH (Van't Hoff fit of HRM Tm); higher = less exothermic duplex formation; conditions: temperature for dG: 50 °C, NaCl: 500 mM (unadjusted)
Experimental: as §1

[4] = duplex formation entropy ΔS (Van't Hoff fit of HRM Tm); higher = smaller entropy loss on duplex formation; conditions: temperature for dG: 50 °C, NaCl: 500 mM (unadjusted)
Experimental: as §1

[5] = duplex concentration 1 µM, backbone: PO-PO (both strands phosphodiester DNA)
[6] = duplex concentration 1 µM, backbone: PS-PO (listed strand fully phosphorothioate, complement phosphodiester)
[7] = duplex concentration 1 µM, backbone: PS-PS (both strands fully phosphorothioate)
[8] = duplex concentration 2.5 µM, backbone: PO-PO (both strands phosphodiester DNA)
[9] = duplex concentration 2.5 µM, backbone: PS-PO (listed strand fully phosphorothioate, complement phosphodiester)
[10] = duplex concentration 2.5 µM, backbone: PS-PS (both strands fully phosphorothioate)
[11] = duplex concentration 5 µM, backbone: PO-PO (both strands phosphodiester DNA)
[12] = duplex concentration 5 µM, backbone: PS-PO (listed strand fully phosphorothioate, complement phosphodiester)
[13] = duplex concentration 5 µM, backbone: PS-PS (both strands fully phosphorothioate)
[14] = duplex concentration 7.5 µM, backbone: PO-PO (both strands phosphodiester DNA)
[15] = duplex concentration 7.5 µM, backbone: PS-PO (listed strand fully phosphorothioate, complement phosphodiester)
[16] = duplex concentration 7.5 µM, backbone: PS-PS (both strands fully phosphorothioate)
[17] = duplex concentration 10 µM, backbone: PO-PO (both strands phosphodiester DNA)
[18] = duplex concentration 10 µM, backbone: PS-PO (listed strand fully phosphorothioate, complement phosphodiester)
[19] = duplex concentration 10 µM, backbone: PS-PS (both strands fully phosphorothioate)
[20] = duplex concentration 15 µM, backbone: PO-PO (both strands phosphodiester DNA)
[21] = duplex concentration 15 µM, backbone: PS-PO (listed strand fully phosphorothioate, complement phosphodiester)
[22] = duplex concentration 15 µM, backbone: PS-PS (both strands fully phosphorothioate)
[23] = duplex concentration 20 µM, backbone: PO-PO (both strands phosphodiester DNA)
[24] = duplex concentration 20 µM, backbone: PS-PO (listed strand fully phosphorothioate, complement phosphodiester)
[25] = duplex concentration 20 µM, backbone: PS-PS (both strands fully phosphorothioate)
[26] = backbone: PO-PO (both strands phosphodiester DNA)
[27] = backbone: PS-PO (listed strand fully phosphorothioate, complement phosphodiester)
[28] = backbone: PS-PS (both strands fully phosphorothioate)

Sequence	duplex melting temperature [1, 5] [°C]	duplex melting temperature [1, 6] [°C]	duplex melting temperature [1, 7] [°C]	duplex melting temperature [1, 8] [°C]	duplex melting temperature [1, 9] [°C]	duplex melting temperature [1, 10] [°C]	duplex melting temperature [1, 11] [°C]	duplex melting temperature [1, 12] [°C]	duplex melting temperature [1, 13] [°C]	duplex melting temperature [1, 14] [°C]	duplex melting temperature [1, 15] [°C]	duplex melting temperature [1, 16] [°C]	duplex melting temperature [1, 17] [°C]	duplex melting temperature [1, 18] [°C]	duplex melting temperature [1, 19] [°C]	duplex melting temperature [1, 20] [°C]	duplex melting temperature [1, 21] [°C]	duplex melting temperature [1, 22] [°C]	duplex melting temperature [1, 23] [°C]	duplex melting temperature [1, 24] [°C]	duplex melting temperature [1, 25] [°C]	duplex formation free energy ΔG50 [2, 26] [kcal/mol]	duplex formation free energy ΔG50 [2, 27] [kcal/mol]	duplex formation free energy ΔG50 [2, 28] [kcal/mol]	duplex formation enthalpy ΔH [3, 26] [kcal/mol]	duplex formation enthalpy ΔH [3, 27] [kcal/mol]	duplex formation enthalpy ΔH [3, 28] [kcal/mol]	duplex formation entropy ΔS [4, 26] [cal/mol/K]	duplex formation entropy ΔS [4, 27] [cal/mol/K]	duplex formation entropy ΔS [4, 28] [cal/mol/K]
CGACATGTATGGCACAG	64.55 ± 0.5	58.38 ± 0.3	50.2 ± 0.26	67.76 ± 0.17	60.82 ± 0.11	53.07 ± 0.18	69.89 ± 0.28	62.71 ± 0.088	55.02 ± 0.11	70.97 ± 0.12	63.78 ± 0.073	56.02 ± 0.081	71.86 ± 0.14	64.547 ± 0.024	56.75 ± 0.13	73.04 ± 0.17	65.56 ± 0.091	57.63 ± 0.092	73.85 ± 0.16	66.343 ± 0.048	58.35 ± 0.083	-13.17 ± 0.12	-11.9 ± 0.052	-9.881 ± 0.049	-77.2 ± 2	-84.2 ± 1.3	-79.1 ± 2.7	-198 ± 5.8	-224 ± 3.8	-214 ± 8.2
ACTGTATCGCCCTA			43.6 ± 0.65	64.04 ± 0.18		47.26 ± 0.29	65.3 ± 0.12	57.4 ± 0.95	50.2 ± 0.33	66.7 ± 0.24	60.1 ± 0.84	51.8 ± 0.45	68.35 ± 0.2	61.56 ± 0.48	54.55 ± 0.45	69.55 ± 0.22	62.93 ± 0.27	57.15 ± 0.42	70.51 ± 0.2	63.73 ± 0.26	59.2 ± 0.59	-12 ± 0.31	-10.2 ± 0.24	-8.829 ± 0.042	-70.4 ± 6	-56.7 ± 6.8	-40.3 ± 2.8	-181 ± 18	-144 ± 20	-97.5 ± 8.7
AGGAGTGAATGAAATGG	59.4	54.5	43.7 ± 0.16	62.1 ± 0.68	57.08 ± 0.11	46.44 ± 0.17	64.64 ± 0.23	59.096 ± 0.041	48.39 ± 0.29	65.704 ± 0.056	60.13 ± 0.11	49.32 ± 0.19	66.73 ± 0.088	61.02 ± 0.073	50.27 ± 0.12	68.03 ± 0.15	62.13 ± 0.11	51.3 ± 0.13	69.03 ± 0.084	62.93 ± 0.16	52.15 ± 0.22	-11.71 ± 0.11	-10.85 ± 0.05	-8.33 ± 0.02	-69.7 ± 2.4	-78 ± 1.6	-73.4 ± 2.2	-179 ± 7	-208 ± 4.8	-201 ± 6.7
GGTGGCGTTCTT			40.15 ± 0.21	61.9		44.6 ± 0.65	63 ± 0.79		48.03 ± 0.26	64.6 ± 0.54	57	49.76 ± 0.44	65.58 ± 0.13	58.31 ± 0.53	51.3 ± 0.97	66.42 ± 0.23	60.44 ± 0.39	53.7 ± 1.4	67.68 ± 0.13	61.54 ± 0.24	55.8 ± 0.86		-9.41 ± 0.08	-8.491 ± 0.033		-45.3 ± 2.7	-41.1 ± 3.2		-111 ± 8.2	-101 ± 9.8
GTGAGCAGAAGGGGTT	64.4 ± 0.57	59.41 ± 0.21	51.01 ± 0.18	66.59 ± 0.48	62.57 ± 0.13	54.75 ± 0.25	68.752 ± 0.066	64.68 ± 0.15	56.88 ± 0.17	70.17 ± 0.27	66 ± 0.37	58.06 ± 0.31	71.2 ± 0.18	66.75 ± 0.18	58.956 ± 0.043	72.73 ± 0.15	68.05 ± 0.21	60.17 ± 0.3	73.73 ± 0.092	69.05 ± 0.47	60.93 ± 0.33	-12.7 ± 0.19	-11.81 ± 0.093	-10.06 ± 0.071	-71 ± 3.3	-71.4 ± 2	-66.3 ± 3	-180 ± 9.6	-184 ± 6	-174 ± 8.9
GTGGTACAAATGCGACC	66.7	58.59 ± 0.28	49.91 ± 0.4	68.46 ± 0.35	61.19 ± 0.13	52.86 ± 0.053	70.27 ± 0.1	63.12 ± 0.081	54.891 ± 0.046	71.34 ± 0.084	64.14 ± 0.075	55.93 ± 0.084	72.06 ± 0.12	65.04 ± 0.1	56.63 ± 0.12	73.205 ± 0.062	66.133 ± 0.0075	57.534 ± 0.054	74.14 ± 0.12	66.91 ± 0.08	58.25 ± 0.083	-13.92 ± 0.12	-11.87 ± 0.036	-9.816 ± 0.052	-88 ± 1.9	-80.9 ± 0.88	-77.3 ± 2.9	-229 ± 5.5	-214 ± 2.6	-209 ± 8.9
TCTCGCGGTTCCATTA	62.7 ± 1.2	56.3	50.4 ± 1.6	67.08 ± 0.63	59.34 ± 0.38	54.64 ± 0.23	68.7 ± 0.86	61.95 ± 0.17	57.28 ± 0.084	70.24 ± 0.58	63.21 ± 0.18	58.48 ± 0.13	71.59 ± 0.45	64.2 ± 0.12	59.42 ± 0.15	73.26 ± 0.38	65.517 ± 0.063	60.81 ± 0.1	74.35 ± 0.18	66.61 ± 0.15	61.53 ± 0.15	-12.1 ± 0.14	-10.99 ± 0.07	-9.954 ± 0.074	-61.4 ± 2.4	-64.3 ± 1.7	-59.3 ± 2.9	-152 ± 7	-165 ± 5.2	-153 ± 8.8
TTGTAGTTGACGTTTGTGATTTAGTGAATT	75.58 ± 0.12	66.16 ± 0.47	57.2 ± 0.68	76.626 ± 0.046	67.48 ± 0.5	59 ± 0.58	77.623 ± 0.046	68.57 ± 0.46	60.27 ± 0.37	78.24 ± 0.12	69.28 ± 0.39	60.98 ± 0.26	78.646 ± 0.027	69.64 ± 0.24	61.54 ± 0.13	78.98 ± 0.12	70.23 ± 0.23	62.29 ± 0.073	79.7	70.83 ± 0.099	62.84 ± 0.14	-23.4 ± 0.65	-16.9 ± 0.24	-12.45 ± 0.081	-186 ± 8.2	-151 ± 4.2	-121 ± 2.5	-503 ± 23	-414 ± 12	-335 ± 7.4
TTCGCGGTCTCCATTA			51.49 ± 0.12		60.46 ± 0.26	55.69 ± 0.27	68.99 ± 0.35	62.978 ± 0.054	58.1 ± 0.25	70.45 ± 0.55	64.448 ± 0.036	59.57 ± 0.46	71.62 ± 0.38	65.33 ± 0.18	60.56 ± 0.28	73.14 ± 0.38	66.71 ± 0.2	61.77 ± 0.089	74.63 ± 0.43	67.75 ± 0.63	62.58 ± 0.18	-12 ± 0.26	-11.23 ± 0.091	-10.18 ± 0.084	-59.2 ± 4.2	-65.2 ± 2.1	-60.9 ± 3	-146 ± 12	-167 ± 6.1	-157 ± 8.9
